Reference: publication PMC3391682, “Structure of the Glycosyltransferase EryCIII in Complex with its Activating P450 Homologue EryCII” (Journal of Molecular Biology, 2012)

Target: T1, glycosyltransferase EryCIII (UniProt A4F7P3 1-421)
T1 construct: EryCIII, glycosyltransferase that attaches TDP-D-desosamine to 3-alpha-mycarosylerythronolide B in erythromycin D biosynthesis; printed mass 48.1 kDa (47,961 Da measured, loss of the N-terminal methionine); Se-Met-labelled protein was used for phasing; also called GT EryCIII; source: E. coli BL21 (DE3) codon plus RP, co-expressed with the S. coelicolor chaperonins GroEL1, GroES and GroEL2, …
T1 sequence (looked up): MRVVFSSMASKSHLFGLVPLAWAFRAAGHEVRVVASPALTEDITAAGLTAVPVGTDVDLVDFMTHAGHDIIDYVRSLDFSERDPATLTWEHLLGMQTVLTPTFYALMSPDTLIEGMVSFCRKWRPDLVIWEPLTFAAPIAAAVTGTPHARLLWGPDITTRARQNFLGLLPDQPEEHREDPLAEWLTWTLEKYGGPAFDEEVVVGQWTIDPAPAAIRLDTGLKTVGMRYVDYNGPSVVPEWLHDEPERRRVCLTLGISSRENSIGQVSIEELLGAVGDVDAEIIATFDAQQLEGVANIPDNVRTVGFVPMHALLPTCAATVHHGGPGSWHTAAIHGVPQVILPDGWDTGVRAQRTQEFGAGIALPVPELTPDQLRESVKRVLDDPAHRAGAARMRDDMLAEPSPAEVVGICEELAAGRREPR
Assay: AUC; sedimentation velocity of the co-expressed, co-purified EryCIII·EryCII complex in 2 mM DTT, 293 K, 50,000 r.p.m.; c(S) and c(M) analysis, taken together with band intensities on a denaturing polyacrylamide gel
Settings: both partners purified

stoichiometry N: 1
B1: EryCII, activating P450 homologue (auxiliary protein) of EryCIII (natural protein)
chain: MTTTDRAGLGRQLQMIRGLHWGYGSNGDPYPMLLCGHDDDPQRRYRSMRESGVRRSRTETWVVADHATARQVLDDPAFTRATGRTPEWMRAAGAPPAEWAQPFRDVHAASWEGEVPDVGELAESFAGLLPGAGARLDLVGDFAWQVPVQGMTAVLGAAGVLRGAAWDARVSLDAQLSPQQLAVTEAAVAALPADPALRALFAGAEMTANTVVDAVLAVSAEPGLAERIADDPAAAQRTVAEVLRLHPALHLERRTATAEVRLGEHVIGEGEEVVVVVAAANRDPEVFAEPDRLDVDRPDADRALSAHRGHPGRLEELVTALATAALRAAAKALPGLTPSGPVVRRRRSPVLRGTNRCPVEL
notes: printed mass 40.7 kDa; also called helper protein
